# Experimental data published in paper PMC4866770 (PLoS ONE, 2016).
# B1: FLAG-Fe65 (natural protein, human, UniProt O00213-2 1-708, looked up)
# chain: MSVPSSLSQSAINANSHGGPALSLPLPLHAAHNQLLNAKLQATAVGPKDLRSAMGEGGGPEPGPANAKWLKEGQNQLRRAATAHRDQNRNVTLTLAEEASQEPEMAPLGPKGLIHLYSELELSAHNAANRGLRGPGLIISTQEQGPDEGEEKAAGEAEEEEEDDDDEEEEEDLSSPPGLPEPLESVEAPPRPQALTDGPREHSKSASLLFGMRNSAASDEDSSWATLSQGSPSYGSPEDTDSFWNPNAFETDSDLPAGWMRVQDTSGTYYWHIPTGTTQWEPPGRASPSQGSSPQEESQLTWTGFAHGEGFEDGEFWKDEPSDEAPMELGLKEPEEGTLTFPAQSLSPEPLPQEEEKLPPRNTNPGIKCFAVRSLGWVEMTEEELAPGRSSVAVNNCIRQLSYHKNNLHDPMSGGWGEGKDLLLQLEDETLKLVEPQSQALLHAQPIISIRVWGVGRDSGRDFAYVARDKLTQMLKCHVFRCEAPAKNIATSLHEICSKIMAERRNARCLVNGLSLDHSKLVDVPFQVEFPAPKNELVQKFQVYYLGNVPVAKPVGVDVINGALESVLSSSSREQWTPSHVSVAPATLTILHQQTEAVLGECRVRFLSFLAVGRDVHTFAFIMAAGPASFCCHMFWCEPNAASLSEAVQAACMLRYQKCLDARSQASTSCLPAPPAESVARRVGWTVRRGVQSLWGSLKPKRLGAHTP
# Biological target: amyloid precursor protein (APP) (human (endogenous in HEK293), UniProt P05067 18-770)
# Sequence (P05067 18-770): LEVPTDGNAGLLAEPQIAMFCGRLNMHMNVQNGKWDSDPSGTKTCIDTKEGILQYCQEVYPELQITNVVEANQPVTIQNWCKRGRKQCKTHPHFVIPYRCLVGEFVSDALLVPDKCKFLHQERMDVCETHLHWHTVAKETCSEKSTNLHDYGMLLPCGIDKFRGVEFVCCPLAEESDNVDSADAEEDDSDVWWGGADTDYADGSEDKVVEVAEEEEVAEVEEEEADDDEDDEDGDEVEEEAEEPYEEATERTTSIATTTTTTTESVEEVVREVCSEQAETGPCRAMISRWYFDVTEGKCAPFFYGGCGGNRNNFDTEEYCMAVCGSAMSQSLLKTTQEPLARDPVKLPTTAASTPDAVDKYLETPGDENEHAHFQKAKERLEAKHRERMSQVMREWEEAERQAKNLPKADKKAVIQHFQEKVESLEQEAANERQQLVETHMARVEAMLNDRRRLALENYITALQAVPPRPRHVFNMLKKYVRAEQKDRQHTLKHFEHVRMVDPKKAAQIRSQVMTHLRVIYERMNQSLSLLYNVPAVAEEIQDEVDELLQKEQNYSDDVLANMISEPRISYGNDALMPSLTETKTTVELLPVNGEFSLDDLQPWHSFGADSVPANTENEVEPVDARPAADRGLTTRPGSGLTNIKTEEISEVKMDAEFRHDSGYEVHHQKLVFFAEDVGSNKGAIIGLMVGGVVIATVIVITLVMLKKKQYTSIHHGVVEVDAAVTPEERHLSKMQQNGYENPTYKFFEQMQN
# Assay: cell-based or functional assay
binder,measurement,value
B1,GAL4-dependent firefly luciferase reporter in HEK293 with pMST-APP (full-length APP fused to the GAL4 DNA binding domain): increase of APP transcriptional activity,~14 fold
